Source: the nanobody polyreactivity screen of Harvey et al. (2022)

Test: yeast display, Sf9 membrane polyspecificity reagent, FACS + sequencing; frameworks hold sequencing errors
Procedure, shortened: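 A nanobody's polyreactivity label depends on the gate it was sorted from. Yeast display cells were stained with 10% biotinylated, detergent-solubilized Sf9 membrane reagent for 1 hour at 4 °C, enriched on streptavidin microbeads and sorted by FACS. The low and high (top ~1%) gates were set on anti-HA fluorescence for expression and streptavidin fluorescence for reagent binding.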

| Sequence | polyreactivity (PSR sort gate) |
| --- | --- |
| QGQLVESGGGLVQAGGSLRLSCAASGRIFYRTAMGWSSQAPGQERELVAVISGSGGRTYYADSVKGRFTIARDNAKNTVYLQMNSLKPEDTAVYYCARRAAYYSYLYSHYPWSYYYWGPGTQVTVSS | high polyreactivity |
| QVQIVESGGGLVQAGGSLRISCAASGFIFAYNSMGWNRQAPGKERELVAAISRSGGSTRYADSVKGRFPISRDNAKNTVFLQMNSLKPEDTAVYYCAAEYLGSYGYYEYDFWGQGTQVTVSS | high polyreactivity |
| QVQLVESGGGLVQAGGSLRLSCAASGRTFTGYNMGWYRQEPGKEREFVAAISSNGGRTYYADSVKGRFTISRDNAKNTVYLQMNSLKPEDTAVYYCAAPFTFWGQGTQVTVSS | high polyreactivity |
| QVQLVESGGGLVQAGGSLRLSCAASGLIFRPYTMGWYRQAPGKERELVATISGSGASTNYADSVNGRFTISRDNAKNTVYLQMNSLKPEDTAVYYCKGRCYSRMYYWGQGTQVTVSS | high polyreactivity |
| QVQLVESGGGLVQAGGSLRLSCASSGRIFGLYAMGWNRQAPGKERELVAAISRGGGSTYYADSVKGRFTISRDNAKNTVYLQMNSLKPEDTAVYYCATGLGYFSRLDYWGQGTQVTVSS | low polyreactivity |
| QVQLVESGGGLVQAGGRLLLSCAASGRTFYRNAMGWYRQAPGKEREFVPSIRTSGGSTYYADSVKGRFTISRDNAKNTVYLQMNSLKPEDTAVYYCKKYRQQGWEFDYWGQGTQVTVSS | high polyreactivity |
| QVQLVESGGGLVQAGGILRLGCAASGSTFAWNAMGWYRPAPGKERELVATISRSGSTNYADSVKGRFTISRDNAKNTVYLQMNCLKPEVTAVYYCARDKRYYRQYYYHTRYYYWGQGTQVTVSS | high polyreactivity |
| QVQLVESGGGLVQAGGSLRVSCAASGIIFVVYDMGWYRQAPGKERELVAAINWSGGSTYYADSVKGRFTISRDNAKNTVYLQMNSLKPEDTAVYYCAAESFSDGSPYNYWGQGTQVTVSS | low polyreactivity |
| QVQLVESGGGLVQAGGSLRISCAASGRTFRTYAMGWYRQAPGKERELVAAISYSDGSTYYADSVKGRFTISRDNAKNTVYLQMNSLKPEDTAVYYCAIEYEDPYYIRYQVGYDFDYWGQGTQVTVSS | low polyreactivity |
| QVQLVESGGGLVQAGGSLRLSCAASGITFWRYAMGWYRQAPGKERELVAAIRWSGSTYADSVKGRFTISRDNAKNTVYLQMNSLKPEDTAVYYCAAYPIGGYHDMDYWGQGTQVTVSS | high polyreactivity |
| QVQLVESGGGLGQAGGSLRLSCAASGRILYIYVMGRYRQARGKERELVAALTWDDGDTYYADSVKGRFTISRDNAKITVYLQMNSLKPEDTAVYNCNAGGQGVATITGHTPEFDYWGQGTQVTVSS | low polyreactivity |
| QVQLVESGGGLVQAGGSLRLSCAASGRTFIGYAMGWYRQAPGKERELVAAISPGGSTKYADSVKGRFTISRDNAKNTVYLQMNSLKPEDTAVYYCAASYSGRQDRYPHYDYWGQGTQVTVSS | low polyreactivity |
| QDQIVESGGGLVQAGGSLRLIFAASGLTIARNAMGWYRQAPGKERELVAAISFSGGSTYYADSVKGRFTISRDNAKNTVYLLMNSLKPEDTAVYYCNTLLRRDFNYWGQGTQVTVSS | high polyreactivity |
| QVQLVESGGGLVQAGGSLRLSCAASGSIFGVYAMGWYRQAPGKERELVARISSGGGSTYYADSVKGRFTISRDNAKNTVYLQMNSLKPEDTAVYYCATRYYGYYPVNYWGQGTQVTVSS | high polyreactivity |
| QVQLVESGGGLVQAGGSLRLSCAASGSIFGGYAMGWSRQAPGNERELVASISISGGSTYYADSVKGRFTISRDNAKNTVYLQMNRLKPEDTAGYYCATDRTTTLNSPYGDPDRDDYWGQGTQVTVSS | low polyreactivity |
| QVQLVESGGGLVQAGGSLRLSCAASGSTFVRNDKGWYRQAPGTEREFVAAINGDGRTYYADSVKGRFTISRDNEKNTVYLQMNSLKPEDTAVYYCAADWKSSRSYSYEMDYWGQGTQVTVSS | low polyreactivity |
| QVQLVESGGGLVQAGGSLRLSCAASGSTFQTYAMGWYRQAPGKERELVASINWRSGSTYYADSVKGRFTISRDNAKNTVYLQMNSLKPEDTAVYSCAAELDFSPGYYYLYDYWGQGTQVTVSS | low polyreactivity |
| QVQLVESGGGLVQAGGSLRLSCAASGSIFYRYAMGWYRQAPGKERELVAAISSGGSTYYADSVKGRFTISRDNAKNTVYLQMNSLKPEDTAVYYCAAKHYYYSPYVRYDPPPGYYWGQGTQVTVSS | high polyreactivity |
| QVQLVESGGGLVQAGGSRPLSCAASGFIFDSNAMGWYRQAPGKGTDLVAAISWSGTSTFYADSVKGRFTISRDNAKNTVYLQMNSLNPEDTAVYYCAAKYGRRGFNRYGYWGQGTQVTVSS | high polyreactivity |
| QVQLVESGGGLVKAGGSLRLSCAASGSILGAYNMGWYRQAPGKERELVSAITRRGGSTYYADSVKGRFTISRDNAKNTVYLQMNSLNPEDTAVYYCNAEYGFWYDYLVVPYDYWGQGTQVTVSS | low polyreactivity |
| QVQLVESGGGLVQAGGSLRLSCAASGYSFRLYAMGWYRQAPAKEWELVAAISKSGGSTYYADSVKGRFTISRDNANNTVYLQMNRLKPEETADYYCAADGVARYQKGQYDYWGQGTQVTVSS | high polyreactivity |
| QVQLVESGGGLVQAGGSLRLSCAASGYIFSYYAMGWYRQAPGKERELVAAINRSGGRTYYADSVKGRFTISRDNAKNTVYLQMNSLKPEDTAVYYCNAYSGLSYRYGYYYWGQGTQVTVSS | high polyreactivity |
